Patent US20150104459A1
Values joined by “and” are separate entries in the source; they are usually repeats but may differ in a detail not shown here. Equal entries are not always repeated.

Assays:
Conditions in all cases: remark: other sources report otherwise
[1] = molecular target: T1, recombinant soluble homotrimeric HA of A/Anhui/1/05 (H5N1) (Influenza A virus A/Anhui/1/2005 (H5N1)); test: HA microarray, BCC supernatant
[2] = molecular target: T2, recombinant soluble homotrimeric HA of A/California/4/09 (H1N1) (Influenza A virus A/California/04/2009 (H1N1)); test: HA microarray, BCC supernatant
[3] = molecular target: T3, recombinant soluble homotrimeric HA of A/Egypt/3300-NAMRU3/08 (H5N1) (Influenza A virus A/Egypt/3300-NAMRU3/2008 (H5N1)); test: HA microarray, BCC supernatant
[4] = molecular target: T4, recombinant soluble homotrimeric HA of A/Indonesia/5/05 (H5N1) (Influenza A virus A/Indonesia/5/2005 (H5N1)); test: HA microarray, BCC supernatant
[5] = molecular target: T5, recombinant soluble homotrimeric HA of A/Japan/305/57 (H2N2) (Influenza A virus A/Japan/305/1957 (H2N2)); test: HA microarray, BCC supernatant
[6] = molecular target: T6, recombinant soluble homotrimeric HA of A/Solomon Islands/3/06 (H1N1) (Influenza A virus A/Solomon Islands/3/2006 (H1N1)); test: HA microarray, BCC supernatant
[7] = molecular target: T7, recombinant soluble homotrimeric HA of A/Vietnam/1203/04 (H5N1) (Influenza A virus A/Vietnam/1203/2004 (H5N1)); test: HA microarray, BCC supernatant
[8] = molecular target: T8, recombinant soluble homotrimeric HA of A/Wisconsin/67/05 (H3N2) (Influenza A virus A/Wisconsin/67/2005 (H3N2)); test: HA microarray, BCC supernatant
[9] = molecular target: T9, recombinant soluble homotrimeric HA of A/chicken/Vietnam/NCVD-016/08 (H5N1) (Influenza A virus A/chicken/Vietnam/NCVD-016/2008 (H5N1)); test: HA microarray, BCC supernatant
[10] = molecular target: T10, recombinant soluble homotrimeric HA of A/duck/Yangzhou/02/2005 (H8N4) (Influenza A virus A/duck/Yangzhou/02/2005 (H8N4)); test: HA microarray, BCC supernatant
[11] = molecular target: recombinant soluble homotrimeric HA of A/northern shoveler/California/HKWF115/2007 (H6N1) (Influenza A virus A/northern shoveler/California/HKWF115/2007 (H6N1)); test: HA microarray, BCC supernatant
[12] = molecular target: recombinant homotrimeric HA, A/Anhui/1/05 H5N1 (Influenza A virus A/Anhui/1/05 (H5N1)); test: trimeric HA microarray; transfection supernatant set 3
[13] = molecular target: recombinant homotrimeric HA, A/California/4/09 H1N1 (Influenza A virus A/California/4/09 (H1N1)); test: as above
[14] = molecular target: recombinant homotrimeric HA, A/Egypt/3300-NAMRU3/08 H5N1 (Influenza A virus A/Egypt/3300-NAMRU3/08 (H5N1)); test: as above
[15] = molecular target: recombinant homotrimeric HA, A/Hong Kong/1073/99 H9N2 (Influenza A virus A/Hong Kong/1073/99 (H9N2)); test: as above
[16] = molecular target: recombinant homotrimeric HA, A/Indonesia/5/05 H5N1 (Influenza A virus A/Indonesia/5/05 (H5N1)); test: as above
[17] = molecular target: recombinant homotrimeric HA, A/Japan/305/57 H2N2 (Influenza A virus A/Japan/305/57 (H2N2)); test: as above
[18] = molecular target: recombinant homotrimeric HA, A/Solomon Islands/3/06 H1N1 (Influenza A virus A/Solomon Islands/3/06 (H1N1)); test: as above
[19] = molecular target: recombinant homotrimeric HA, A/South Carolina/1/18 H1N1 (Influenza A virus A/South Carolina/1/18 (H1N1)); test: as above
[20] = molecular target: recombinant homotrimeric HA, A/Vietnam/1203/04 H5N1 (Influenza A virus A/Vietnam/1203/04 (H5N1)); test: as above
[21] = molecular target: T11, recombinant homotrimeric HA, A/Wisconsin/67/05 H3N2 (Influenza A virus A/Wisconsin/67/05 (H3N2)); test: as above
[22] = molecular target: recombinant homotrimeric HA, A/chicken/Vietnam/NCVD-016/08 H5N1 (Influenza A virus A/chicken/Vietnam/NCVD-016/08 (H5N1)); test: as above
[23] = molecular target: recombinant homotrimeric HA, A/common magpie/Hong Kong/5052/07 H5N1 (Influenza A virus A/common magpie/Hong Kong/5052/07 (H5N1)); test: as above
[24] = molecular target: recombinant homotrimeric HA, A/northern shoveler/California/HKWF115/07 (Influenza A virus A/northern shoveler/California/HKWF115/2007 (H6N1; Table 16 prints H6N4)); test: as above
[25] = molecular target: T1, recombinant soluble homotrimeric HA of …; test: HA microarray, control mAb
[26] = molecular target: T2, recombinant soluble homotrimeric HA of …; test: HA microarray, control mAb
[27] = molecular target: T3, recombinant soluble homotrimeric HA of …; test: HA microarray, control mAb
[28] = molecular target: recombinant soluble homotrimeric HA of A/Hong Kong/2108/03 (H9N2) (Influenza A virus A/Hong Kong/2108/2003 (H9N2)); test: HA microarray, control mAb
[29] = molecular target: T4, recombinant soluble homotrimeric HA of …; test: HA microarray, control mAb
[30] = molecular target: T5, recombinant soluble homotrimeric HA of …; test: HA microarray, control mAb
[31] = molecular target: recombinant soluble homotrimeric HA of A/Netherlands/219/03 (H7N7) (Influenza A virus A/Netherlands/219/03 (H7N7)); test: HA microarray, control mAb
[32] = molecular target: T6, recombinant soluble homotrimeric HA of …; test: HA microarray, control mAb
[33] = molecular target: T7, recombinant soluble homotrimeric HA of …; test: HA microarray, control mAb
[34] = molecular target: T8, recombinant soluble homotrimeric HA of …; test: HA microarray, control mAb
[35] = molecular target: T9, recombinant soluble homotrimeric HA of …; test: HA microarray, control mAb
[36] = molecular target: T10, recombinant soluble homotrimeric HA of …; test: HA microarray, control mAb
[37] = molecular target: recombinant soluble homotrimeric HA of A/swine/Ontario/01911-2/99 (H4N6) (Influenza A virus A/Swine/Ontario/01911-2/99 (H4N6)); test: HA microarray, control mAb
[38] = molecular target: recombinant soluble homotrimeric HA, A/Anhui/1/05 (H5N1) (influenza A virus A/Anhui/1/2005 (H5N1)); test: microarray, trimeric HA, transfection supernatant
[39] = molecular target: recombinant soluble homotrimeric HA, A/Hong Kong/156/97 (H5N1) (influenza A virus A/Hong Kong/156/97 (H5N1)); test: microarray, trimeric HA, transfection supernatant
[40] = molecular target: recombinant soluble homotrimeric HA, A/duck/Yangzhou/02/2005 (H8N4) (influenza A virus A/duck/Yangzhou/02/2005 (H8N4)); test: microarray, trimeric HA, transfection supernatant
[41] = molecular target: recombinant soluble homotrimeric HA, A/Hong Kong/1073/99 (H9N2) (influenza A virus A/Hong Kong/1073/99 (H9N2)); test: microarray, trimeric HA, transfection supernatant
[42] = molecular target: recombinant soluble homotrimeric HA, A/Hong Kong/2108/03 (H9N2) (influenza A virus A/Hong Kong/2108/2003 (H9N2)); test: microarray, trimeric HA, transfection supernatant
[43] = molecular target: recombinant soluble homotrimeric HA, A/chicken/Vietnam/NCVD-016/08 (H5N1) (influenza A virus A/chicken/Vietnam/NCVD-016/2008 (H5N1)); test: microarray, trimeric HA, transfection supernatant
[44] = molecular target: recombinant soluble homotrimeric HA, A/northern shoveler/California/HKWF115/2007 (H6N1) (influenza A virus A/northern shoveler/California/HKWF115/2007 (H6N1)); test: microarray, trimeric HA, transfection supernatant
[45] = molecular target: T11, recombinant homotrimeric HA, …; test: trimeric HA microarray; transfection supernatant set 4

B1: TCN-533 (5256_A17) (antibody, V domains shown)
VH: QVQLVQSGADVKKPGSSVTVSCKASGGSFSNYGINWVRQAPGQGLEWMGGIIPLINAPNYAPKFQGRVTITADMFSNIVSLQLTSLRTDDTAVYYCARRKMTTAIDYWGQGTLVTVSS
VL: QPVLSQPPSASASLGASVTLTCTLSSGFDNYQVAWYQQRPGKGPRFVMRVGNGGNVASKGDGIPDRFSVSGSGLNRYLTIKNIQEDDESDYYCGADHGSGNNFVSPYVFGGGTKLTVL
[1]
  Trimeric HA Binding RLU: 8060 RLU
[2]
  Trimeric HA Binding RLU: 29300 RLU
[3]
  Trimeric HA Binding RLU: 34300 RLU
[4]
  Trimeric HA Binding RLU: 44100 RLU
[5]
  Trimeric HA Binding RLU: 10800 RLU
[6]
  Trimeric HA Binding RLU: 39200 RLU
[7]
  Trimeric HA Binding RLU: 5680 RLU
[8]
  Trimeric HA Binding RLU: 13800 RLU
[9]
  Trimeric HA Binding RLU: 47700 RLU
[10]
  Trimeric HA Binding RLU: 24700 RLU
[11]
  Trimeric HA Binding RLU: 41400 RLU
[12]
  Trimeric HA Binding: RLU: 301 RLU
[13]
  Trimeric HA Binding: RLU: 6880 RLU
[14]
  Trimeric HA Binding: RLU: 18600 RLU
[15]
  Trimeric HA Binding: RLU: 23800 RLU
[16]
  Trimeric HA Binding: RLU: 28300 RLU
[17]
  Trimeric HA Binding: RLU: 18600 RLU
[18]
  Trimeric HA Binding: RLU: 15500 RLU
[19]
  Trimeric HA Binding: RLU: 16400 RLU
[20]
  Trimeric HA Binding: RLU: 11700 RLU
[21]
  Trimeric HA Binding: RLU: 16100 RLU
[22]
  Trimeric HA Binding: RLU: 24600 RLU
[23]
  Trimeric HA Binding: RLU: 25200 RLU
[24]
  Trimeric HA Binding: RLU: 7810 RLU

B2: TCN-504 (3251_K17) (antibody, V domains shown)
VH: QVQLQESGPGLVKPSETLSLTCAVSGVSISNIDFYWGWIRQPPGKGLEWIGNIYYTGITFYNPSLSSRVAISIDTSKNQFSLTLTSVTAADTAMYYCARHYGDSEAINDAFDIWGQGTMLTVSS
VL: EIVMTQSPATLSVSPGERATLSCRASQSVGNSLAWYQQRPGQAPRLLIYGASTRATGIPPRFSGSGSGTEFTLTISSLQTEDFAVYYCQQYINWRPLSFGGGTKVEIK
[25]
  Trimeric HA Binding RLU: 26200 RLU
[26]
  Trimeric HA Binding RLU: 3330 RLU
[27]
  Trimeric HA Binding RLU: 44400 RLU
[28]
  Trimeric HA Binding RLU: 454 RLU
[29]
  Trimeric HA Binding RLU: 43300 RLU
[30]
  Trimeric HA Binding RLU: 4090 RLU
[31]
  Trimeric HA Binding RLU: 47200 RLU
[32]
  Trimeric HA Binding RLU: 24100 RLU
[33]
  Trimeric HA Binding RLU: 196 RLU
[34]
  Trimeric HA Binding RLU: 40500 RLU
[35]
  Trimeric HA Binding RLU: 38500 RLU
[36]
  Trimeric HA Binding RLU: 14100 RLU
[37]
  Trimeric HA Binding RLU: 14700 RLU
[38]
  Trimeric HA Binding RLU: 30000 RLU and 14100 RLU and 37200 RLU
[39]
  Trimeric HA Binding RLU: 26600 RLU
[40]
  Trimeric HA Binding RLU: 19600 RLU and 19900 RLU and 35100 RLU

B3: TCN-534 (5249_B02) (antibody, V domains shown)
VH: QVQLVQSGAEVKKPGSSVKVSCRESGGTFNGYTITWVRQAPGQGLEWMGGIIPMMGTVNYAQKLQGRVTITTDYFTKTAYMDLNNLRSEDTAMYYCVKIRYTGQQLLWGQGTLVTVSS
VL: DIQMTQSPSTLSASIGDRVTITCRASQSIASWLAWYQQKPGKAPKLLIYEAVNLESGVPSRFSGSGSGTDFTLTISSLQPDDFATYFCQHYGTISQTFGGGTKVEIK
[1]
  Trimeric HA Binding RLU: 6860 RLU
[2]
  Trimeric HA Binding RLU: 30100 RLU
[3]
  Trimeric HA Binding RLU: 41400 RLU
[4]
  Trimeric HA Binding RLU: 46400 RLU
[5]
  Trimeric HA Binding RLU: 50600 RLU
[6]
  Trimeric HA Binding RLU: 44200 RLU
[7]
  Trimeric HA Binding RLU: 3440 RLU
[8]
  Trimeric HA Binding RLU: 7980 RLU
[9]
  Trimeric HA Binding RLU: 56600 RLU
[10]
  Trimeric HA Binding RLU: 46500 RLU
[11]
  Trimeric HA Binding RLU: 52400 RLU
[41]
  Trimeric HA Binding RLU: 731 RLU
[42]
  Trimeric HA Binding RLU: 27 RLU
[43]
  Trimeric HA Binding RLU: 11400 RLU
[44]
  Trimeric HA Binding RLU: 21300 RLU
[45]
  Trimeric HA Binding: RLU: 897 RLU
